These are literature values, as cited in article PMC11589041.

Data set [1] concerns the target INF2 DAD DAD (Homo sapiens) (UniProt Q27J81).
The target of data set [2] is mDia1 DAD DAD (Mus musculus) (UniProt O08808).

Where “and” joins values, the source holds several entries; their conditions need not be identical. Equal entries are not always repeated.

INF2 DAD DAD (Homo sapiens), sequence (Q27J81 967-1000): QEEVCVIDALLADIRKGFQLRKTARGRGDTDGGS
INF2 DID DID, sequence (Q27J81 1-267): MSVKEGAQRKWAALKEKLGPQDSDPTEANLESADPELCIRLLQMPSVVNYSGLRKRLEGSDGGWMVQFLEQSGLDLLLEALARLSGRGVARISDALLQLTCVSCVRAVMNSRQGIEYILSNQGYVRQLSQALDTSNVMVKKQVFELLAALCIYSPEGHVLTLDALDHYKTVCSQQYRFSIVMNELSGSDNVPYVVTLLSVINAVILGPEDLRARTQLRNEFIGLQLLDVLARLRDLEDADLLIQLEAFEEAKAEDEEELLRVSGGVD
mDia1 DID DID, sequence (O08808 129-369): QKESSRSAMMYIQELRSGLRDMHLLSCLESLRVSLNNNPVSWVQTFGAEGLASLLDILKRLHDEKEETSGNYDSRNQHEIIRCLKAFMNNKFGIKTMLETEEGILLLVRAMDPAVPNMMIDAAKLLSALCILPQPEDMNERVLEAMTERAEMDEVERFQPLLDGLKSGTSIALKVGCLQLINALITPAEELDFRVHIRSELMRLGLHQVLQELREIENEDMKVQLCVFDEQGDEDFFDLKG
mDia1 DAD DAD (Mus musculus), sequence (O08808 1174-1208): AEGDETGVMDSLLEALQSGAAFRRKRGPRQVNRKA

For INF2 DID DID (from UniProt Q27J81), in data set [1], the Kd was 22 µM and 5.4 µM.

For the substance mDia1 DID DID (from UniProt O08808), the Kd in data set [2] is 0.265 µM.
